Results taken from patent publication US7605133 (PANACEA PHARMACEUTICALS, dated 2009).
Ends that are not written are not given here.

Legend:
[1] = target: T1, NAC portion of α-synuclein (approx. amino acids 61-87) (human, UniProt P37840 61-87); experiment: phage display selection
T1 construct: range 61-87; also called α-synuclein 61-87 peptide

[2] = target: T1, NAC portion of α-synuclein (approx. …); experiment: phage display selection with the α-synuclein 121-131 and 61-87 peptides as the bait
[3] = target: α-synuclein (recombinant, wildtype) (human, UniProt P37840 1-140); experiment: cell-based or functional assay

Binder	binding result [1]	binding result [2]	inhibition of iron-induced α-synuclein aggregation in vitro, densitometric quantification, 10-fold excess of the peptide [3] [%]
RLRGRNQ (7-mer from phage display)	binds	–	–
SLKRLPK (also: displayed on phage coat protein, also called SLKRLPK phage; not shown: phage coat protein that carries the 7-mer (New England Biolabs phage display kit); neither the protein nor any linker is) [phage containing the SLKRLPK (SEQ ID NO: 7) peptide]	–	binds	–
HLYHHKT (7-mer from phage display)	binds	–	–
THIHHPS (7-mer from phage display)	binds	–	–
WPFHHHR (7-mer from phage display)	binds	–	–
SLKRLPK (also called the peptide)	binds	–	38
